# Results taken from patent US20200360435A1 (MIE UNIVERSITY, published 2020).
# Molecular target: PE-labeled HLA-A*02:01/Taxp11-19 ([…]) tetramer (human; HTLV-1)
# Assay: tetramer staining of TCR-transduced human PBMCs, flow cytometry
Binder,percent TCR-positive (tetramer-positive) CD4-positive cells among transfected cells,percent TCR-positive (tetramer-positive) CD8-positive cells among transfected cells
"TCR2-2 (TCR, V domains shown, also called TCR having feature (D)) V domain 1: GAVVSQHPSRVICKSGTSVKIECRSLDFQATTMFWYRQFPKKSLMLMATSNEGSKATYEQGVEKDKFLINHASLTLSTLTVTSAHPEDSSFYICSARAGGDTFGSGTRLTVVE V domain 2: AQSVTQLDSHVSVSEGTPVLLRCNYSSSYSPSLFWYVQHPNKGLQLLLKYTSAATLVKGINGFEAEFKKSETSFHLTKPSAHMSDAAEYFCVVSVNDYKLSFGAGTTVTVRA",≥ 5%,≥ 10%
"TCR5-2 (TCR, V domains shown, also called TCR having feature (F)) V domain 1: GAVVSQHPSRVICKSGTSVKIECRSLDFQATTMFWYRQFPKKSLMLMATSNEGSKATYEQGVEKDKFLINHASLTLSTLTVTSAHPEDSSFYICSAKASEQYFGPGTRLTVTE V domain 2: SQQGEEDPQALSIQEGENATMNCSYKTSINNLQWYRQNSGRGLVHLILIRSNEREKHSGRLRVTLDTSKKSSSLLITASRAADTASYFCAADNYGQNFVFGPGTRLSVLP",≥ 5%,≥ 10%
"TCR1-2 (TCR, V domains shown, also called TCR having feature (B)) V domain 1: GAVVSQHPSRVICKSGTSVKIECRSLDFQATTMFWYRQFPKKSLMLMATSNEGSKATYEQGVEKDKFLINHASLTLSTLTVTSAHPEDSSFYICSARYGEVAFFGQGTRLTVVE V domain 2: GENVEQHPSTLSVQEGDSAVIKCTYSDSASNYFPWYKQELGKGPQLIIDIRSNVGEKKDQRIAVTLNKTAKHFSLHITETQPEDSAVYFCAASRDNNDMRFGAGTRLTVKP",≥ 5%,≥ 10%
"TCR5-3 (TCR, V domains shown, also called TCR having feature (G)) V domain 1: GVTQTPKFRVLKTGQSMTLLCAQDMNHEYMYWYRQDPGMGLRLIHYSVGEGTTAKGEVPDGYNVSRLKKQNFLLGLESAAPSQTSVYFCASSYSRDRGWSEAFFGQGTRLTVVE V domain 2: AQKVTQAQTEISVVEKEDVTLDCVYETRDTTYYLFWYKQPPSGELVFLIRRNSFDEQNEISGRYSWNFQKSTSSFNFTITASQVVDSAVYFCALNVMNRDDKIIFGKGTRLHILP",≥ 5%,≥ 10%
"TCR2-1 (TCR, V domains shown, also called TCR having feature (C)) V domain 1: EAQVTQNPRYLITVTGKKLTVTCSQNMNHEYMSWYRQDPGLGLRQIYYSMNVEVTDKGDVPEGYKVSRKEKRNFPLILESPSPNQTSLYFCASSPGLAGGVEQFFGPGTRLTVLE V domain 2: RKEVEQDPGPFNVPEGATVAFNCTYSNSASQSFFWYRQDCRKEPKLLMSVYSSGNEDGRFTAQLNRASQYISLLIRDSKLSDSATYLCVVNIGFGNVLHCGSGTQVIVLP",≥ 5%,≥ 10%
